Measurements: patent US20240368549A1, “ENHANCEMENT OF HEMATOPOIETIC STEM CELL AND HEMATOPOIETIC PROGENITOR CELL EXPANSION WITH AGENTS THAT ACTIVATE TAM RECEPTORS” (CANADIAN BLOOD SERVICES, priority 2021, published 2024)
Entries after “also recorded” stand apart in the source; their conditions may differ.

Experiments:
[1] = test system: Umbilical cord blood (UCB) CD34+ cells; experiment: Expansion of UCB CD34+ cells cultured 14 days with SCACs, GAS6 or inhibitors; format: cell-based, human
Protocol: (§1) Umbilical cord blood (UCB) CD34+ cells were cultured in StemSpan™ SFEM (StemCell Technologies) in the presence of different SCACs for 14-days and net fold expansion of TNC, CD34+ cells CD34+CD45RA− cells, and EPCR^High was calculated based on respective population on day-0 (e.g. net TNC day 14/TNC day 0). Control STFL cultures consisted of the same complete media without small molecules. Unless indicated otherwise, all cultures were supplemented with Stem Cell Factor, Flt-3 and Thrombopoietin at 100 ng/ml. All cultures also contained 10 μg/mL low-density lipoprotein (LDL, Stem Ce, Technologies) and 1% penicillin-streptomycin (Gibco). […] The improvement in HSPC expansion provided by the SCACs is exemplified with X2A in FIGS. 2A-2D. […] Culture done with adult CD34+ mobilized peripheral blood stem cells (mPBSC, CAT #70060.2, Stem Cell Technologies) also contained IL-6 (100 ng/ml) as additional cytokine (FIG. 9).
To investigate the impact of AA2P and/or SCACs on expression of AXL and its activation level, HSPC were culture in STFL with or without AA2P or the indicated SCAC for 14 days (FIG. 4F). In some cultures, the AXL kinase inhibitor Bemcentinib or a neutralizing antibody was added to cultures at day 10, and the impact on HSPC expansion was investigated in indicated cultures at day 14. Proteins level were investigated by western blot analysis or intracellular flowcytometry analysis following common procedures with anti-AXL [Goat IgG anti-AXL (Cat #AF154) or anti-p-AXL (Cat #AF2228) or anti-GAS6 (rabbit IgG, Cat #67202S, Cell Signaling Tech.) and appropriate secondary antibodies, R&D systems). […] AXL is expressed by CD34+CD45RA− HSPCs cultured in both X2A and C6 culture (FIG. 5A). […] This support that, even in the absence of exogenous GAS6 , AA2P alone or in combination with other small molecule (i.e. stem cell agonist such as UM171, SR1 . . . ) is capable of driving enough increased endogenous expression of GAS6 and AXL to support the improved expansion of CD34+CD45RA− HSPCs through para-and/or autocrine activation of AXL on HSPCs.
(§2) In each case, GAS6 was added to the cultures from days 7 to 14.
Cell expansion measured after 14 days of culture in STFL culture (FIG. 7A) and in X2A cultures (FIG. 7B). Indeed, as shown therein, the rise in cell growth (TNC) and expansion of HSPC subsets (CD34+ cells, CD34+CD45RA−, EPCRHigh cells) induced by GAS6 can be accomplished by adding GAS6 in cultures at various time point, as early as day 0 and as late as day 10, preferably at day 7.

NSG mice = experiment: Engraftment in NSG mice of X2A-expanded cells with GAS6 or GAS6 neutralizing antibody; format: in vivo
Protocol: Mice group were transplanted with the progeny of 750 expanded CD34+ cells after 14 days of culture. The groups were; […]-expanded cells, […]-expanded cells supplemented with GAS6 (10 ng/ml) or a GAS6 neutralizing antibody (GAS6 Ab) from day-10 to day-14. As shown therein, addition of GAS6 to CB HSPC expansion cultures improves the engraftment achieved from the ex vivo expanded HSPCs.

[2] = test system: CD34+ mobilized peripheral blood stem cells (mPBSC); experiment: Expansion of adult mobilized peripheral blood stem cell (mPBSC) cultures; format: cell-based, human; conditions: GAS6 10 ng/ml, day 7 to 14; STFL and SCAC cultures
Protocol: as §1, §2

For `Nc1nc(Nc2ccc3c(c2)CC[C@@H](N2CCCC2)CC3)nn1-c1cc2c(nn1)-c1ccccc1CCC2` [Bemcentinib, reference compound], the “effect of AXL kinase inhibition on ability of X2A and C6 to expand HSPCs” value ([1]; added at day 10, read at day 14, normalized to DMSO) was “reduction; also recorded: decreased”.

In the case of `Nc1nc(=O)n(-c2cccc(-c3ccccc3)c2)cc1Cl` [Bobcat339, reference compound], the “effect of TET inhibition on cell growth” value ([1]; 30 μM, day-10 to day-14) is reported as “reduced cell growth”.

B1: GAS6: natural ligand of the AXL receptor, growth arrest-specific protein 6, added to cultures at 10 ng/mL (protein, UniProt Q14393 31-678, looked up)
Growth arrest-specific …: ALLPAREATQFLRPRQRRAFQVFEEAKQGHLERECVEELCSREEAREVFENDPETDYFYPRYLDCINKYGSPYTKNSGFATCVQNLPDQCTPNPCDRKGTQACQDLMGNFFCLCKAGWGGRLCDKDVNECSQENGGCLQICHNKPGSFHCSCHSGFELSSDGRTCQDIDECADSEACGEARCKNLPGSYSCLCDEGFAYSSQEKACRDVDECLQGRCEQVCVNSPGSYTCHCDGRGGLKLSQDMDTCEDILPCVPFSVAKSVKSLYLGRMFSGTPVIRLRFKRLQPTRLVAEFDFRTFDPEGILLFAGGHQDSTWIVLALRAGRLELQLRYNGVGRVTSSGPVINHGMWQTISVEELARNLVIKVNRDAVMKIAVAGDLFQPERGLYHLNLTVGGIPFHEKDLVQPINPRLDGCMRSWNWLNGEDTTIQETVKVNTRMQCFSVTERGSFYPGSGFAFYSLDYMRTPLDVGTESTWEVEVVAHIRPAADTGVLFALWAPDLRAVPLSVALVDYHSTKKLKKQLVVLAVEHTALALMEIKVCDGQEHVVTVSLRDGEATLEVDGTRGQSEVSAAQLQERLAVLERHLRSPVLTFAGGLPDVPVTSAPVTAFYRGCMTLEVNRRLLDLDEAAYKHSDITAHSCPPVEPAAA
B1 was tested, and the “HSPC expansion with GAS6 in X2A, X2B, STFL or SM6 culture” value ([1]; FIGS. 5D-5F) was “improved HSPC expansion”, the “expansion of TNC and HSPC subsets, valproic acid (VPA)-containing cultures” value ([1]; GAS6 10 ng/mL, days 7 to 14) was “improved” and the “expansion of the CB HSPC population, GAS6 with single stem cell agonists or agonist cocktails” value ([1]; GAS6 10 ng/mL, days 7 to 14) was “strongly increases”. The “expansion of HSPC subsets, control STFL cultures” value ([1]; GAS6 10 ng/ml, days 7 to 14) was “improved”, the “expansion of TNC and HSPC subsets, AA2P-containing cultures” value ([1]; GAS6 10 ng/ml, days 7 to 14) was “improved” and the “expansion of TNC and HSPC subsets, C6-containing cultures” value ([1]; GAS6 10 ng/ml, days 7 to 14) was “improved”. The “expansion of TNC and HSPC subsets, SM6-containing cultures” value ([1]; GAS6 10 ng/ml, days 7 to 14) was “improved”, the “expansion of TNC and HSPC subsets, SR1-containing cultures” value ([1]; GAS6 10 ng/ml, days 7 to 14) was “improved” and the “expansion of TNC and HSPC subsets, UM171-containing cultures” value ([1]; GAS6 10 ng/ml, days 7 to 14) was “improved”. The “expansion of TNC and HSPC subsets, X2A-containing cultures” value ([1]; GAS6 10 ng/ml, days 7 to 14) was “improved”, the “expansion of CB TNC and HSPC subsets, GAS6 added at different time point” value ([1]; added day 0, 4, 7 or 10, STFL with or without X2A, day 14) was “superior expansion” and the “HSPC expansion, exogenous GAS6 added to SCAC and C6 cultures” value ([1]; compared to SCACs and C6 alone, 10 ng/mL) was “further improved HSPC expansion”. The “levels of human platelets and human % CD45+ leucocytes” value (NSG mice; X2A cultures + GAS6 10 ng/ml, 3-weeks and 16-weeks post-transplant) was “significantly superior”, the “long-term human BM engraftment (% CD45+)” value (NSG mice; X2A cultures, 18-weeks after transplantation) was “improved” and the “distribution of human lineages downstream HSC” value (NSG mice; X2A+ GAS6 group, BM) was “normal distribution”. The “proportion of CD34+ HSPC” value (NSG mice; X2A+ GAS6 mice, BM) was “significantly superior”, the “human CFU” value (NSG mice; X2A+ GAS6 primary transplants) was “significantly superior” and the “net number of human CD34+ BM cells” value (NSG mice; X2A+ GAS6 primary transplants) was “significantly superior”. The “serial engraftment activity in secondary transplants” value (NSG mice; primary X2A+ GAS6 grafts vs X2A grafts, 12-weeks) was “superior serial engraftment activity” and the “expansion of TNC and HSPC subsets in mPBSC cultures with GAS6” value [2] was “further increased”.
